Test results reported in PMC12114846 (2025).

Biological target: IL-15 (Homo sapiens, UniProt P40933)
Sequence (P40933 49-162): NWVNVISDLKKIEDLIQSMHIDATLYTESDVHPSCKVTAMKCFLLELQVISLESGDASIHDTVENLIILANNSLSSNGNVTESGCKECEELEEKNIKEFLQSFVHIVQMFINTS

Kd: 0.24 nM
B1: rILR-Fc (IL-15Rα-Sushi-Fc) Sushi (protein)
chain: TRGITCPPPMSVEHADIWVKSYSLYSRERYICNSGFKRKAGTSSLTECVLNKATNVAHWTTPSLKCIRDPA
modifications: Fc fusion
